Values of other authors in paper PMC6120632.

Target: Basigin (Homo sapiens) (UniProt P35613)
Chain of UniProt P35613 (P35613 22-325): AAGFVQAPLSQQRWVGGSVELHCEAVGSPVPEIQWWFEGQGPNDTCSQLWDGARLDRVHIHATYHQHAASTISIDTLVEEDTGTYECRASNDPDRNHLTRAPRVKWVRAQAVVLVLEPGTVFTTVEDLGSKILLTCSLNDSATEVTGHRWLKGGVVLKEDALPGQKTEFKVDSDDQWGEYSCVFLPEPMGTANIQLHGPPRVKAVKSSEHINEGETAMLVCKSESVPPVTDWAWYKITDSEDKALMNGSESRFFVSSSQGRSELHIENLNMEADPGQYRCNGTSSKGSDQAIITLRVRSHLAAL

For RH5 (from UniProt Q8IFM5), the Kd is listed as 1000 nM.
